Measured values published in patent US20210275657A1 (BIONTECH US, published 2021).

These binders were tested against T1, HLA-A02:01 (human) (assay: peptide-HLA affinity, Example 9).
T1 construct: Stability assay: E. coli-expressed biotinylated heavy chain with 125I-labelled b2m

Observed MHC affinity [nM] | Binder
118 | TLQRSSLWCL
8 | AIQPVLWTT
16 | VLPEPHLAL

The binders below were run against T2, HLA-A03:01 (human) (assay: peptide-HLA affinity, Example 9).
T2 construct: Construct not described

Observed MHC affinity [nM] | Binder
16 | VLWTTPPLQH
80 | YMFLKAESK
3 | KIMFATLQR

The binders below were run against T3, HLA-A11:01 (human) (assay: peptide-HLA affinity, Example 9).
T3 construct: Construct not described

Observed MHC affinity [nM] | Binder
4540 | VLWTTPPLQH
1730 | YMFLKAESK
23 | KIMFATLQR

Each binder was assayed against T4, HLA-A24:02 (human) (assay: peptide-HLA affinity, Example 9).
T4 construct: Construct not described

Observed MHC affinity [nM] | Binder
332 | MFLKAESKI

Each binder was assayed against T5, HLA-B07:02 (human) (assay: peptide-HLA affinity, Example 9).
T5 construct: Stability assay: E. coli-expressed biotinylated heavy chain with 125I-labelled b2m; MS: BAP-tagged HLA in HEK293T cells; Treated as one molecule

Observed MHC affinity [nM] | Binder
221 | GPPARVPAV
109 | QPVLWTTPPL
28 | KPKRDGYMF
14 | FATLQRSSL
98 | KPKRDGYMFL

These binders were tested against T1, HLA-A02:01 (assay: peptide-HLA stability, Example 9).

Observed MHC stability [h] | Binder
0.5 | TLQRSSLWCL
1.5 | AIQPVLWTT
1.1 | VLPEPHLAL

These binders were tested against T2, HLA-A03:01 (assay: peptide-HLA stability, Example 9).

Observed MHC stability [h] | Binder
0.3 | VLWTTPPLQH
0.3 | YMFLKAESK
5.6 | KIMFATLQR

These binders were tested against T3, HLA-A11:01 (assay: peptide-HLA stability, Example 9).

Observed MHC stability [h] | Binder
0 | VLWTTPPLQH
0 | YMFLKAESK
8.9 | KIMFATLQR

These binders were tested against T4, HLA-A24:02 (assay: peptide-HLA stability, Example 9).

Observed MHC stability [h] | Binder
0.2 | MFLKAESKI

Each binder was assayed against T5, HLA-B07:02 (assay: peptide-HLA stability, Example 9).

Observed MHC stability [h] | Binder
0 | MFATLQRSSL
1.6 | GPPARVPAV
1.4 | QPVLWTTPPL
8.6 | KPKRDGYMF
7.2 | EPHLALQPL
0.7 | FATLQRSSL
3.3 | KPKRDGYMFL

These binders were tested against T6, HLA-B08:01 (human) (assay: peptide-HLA stability, Example 9).
T6 construct: Stability assay: E. coli-expressed biotinylated heavy chain with 125I-labelled b2m; MS: BAP-tagged HLA in HEK293T cells; Treated as one molecule

Observed MHC stability [h] | Binder
0 | FLKAESKIMF
1.2 | FLKAESKIM
0 | MFATLQRSSL
0 | LHFCRSSIM
1.3 | ESKIMFATL
0.4 | IMKPKRDGYM
0 | EPHLALQPL
0 | FATLQRSSL

Each binder was assayed against T2, HLA-A03:01 (assay: peptide-HLA affinity, Example 36).

Affinity [nM] | Binder
95.9 | YMANGSLLNY (also called BTK C481S mutant peptide)
35.6 | MANGSLLNY (also called BTK C481S mutant peptide)

These binders were tested against T3, HLA-A11:01 (assay: peptide-HLA affinity, Example 36).

Affinity [nM] | Binder
974 | YMANGSLLNY (also called BTK C481S mutant peptide)
536 | MANGSLLNY (also called BTK C481S mutant peptide)

What follows are binders tested against T4, HLA-A24:02 (assay: peptide-HLA affinity, Example 36).

Affinity [nM] | Binder
4.96 | EYMANGSLL (also called BTK C481S mutant peptide)

What follows are binders tested against T7, HLA-A01:01 (human) (assay: peptide-HLA affinity, Example 36).
T7 construct: Construct not described

Affinity [nM] | Binder
13.2 | YMANGSLLNY (also called BTK C481S mutant peptide)
439 | MANGSLLNY (also called BTK C481S mutant peptide)

Each binder was assayed against T2, HLA-A03:01 (assay: peptide-HLA stability, Example 36).

Stability (1/2 hr) [h] | Binder
0.279 | YMANGSLLNY (also called BTK C481S mutant peptide)
0.238 | MANGSLLNY (also called BTK C481S mutant peptide)

These binders were tested against T4, HLA-A24:02 (assay: peptide-HLA stability, Example 36).

Stability (1/2 hr) [h] | Binder
5.72 | EYMANGSLL (also called BTK C481S mutant peptide)

These binders were tested against T7, HLA-A01:01 (assay: peptide-HLA stability, Example 36).

Stability (1/2 hr) [h] | Binder
0.866 | YMANGSLLNY (also called BTK C481S mutant peptide)
0.216 | MANGSLLNY (also called BTK C481S mutant peptide)

The binders below were run against T1, HLA-A02:01 (assay: pMHC-I dissociation, 125I-b2m, 37C; average of 2).

half-life [h] | Binder
0.5 | TLQRSSLWCL

The binders below were run against T5, HLA-B07:02 (assay: pMHC-I dissociation, 125I-b2m, 37C; average of 2).

half-life [h] | Binder
0 | MFATLQRSSL
1.6 | GPPARVPAV
8.6 | KPKRDGYMF
0.7 | FATLQRSSL
3.3 | KPKRDGYMFL

The binders below were run against T6, HLA-B08:01 (assay: pMHC-I dissociation, 125I-b2m, 37C; average of 2).

half-life [h] | Binder
0 | FLKAESKIMF
1.2 | FLKAESKIM
0 | MFATLQRSSL
0 | LHFCRSSIM
1.3 | ESKIMFATL
0.4 | IMKPKRDGYM
0 | FATLQRSSL

These binders were tested against T1, HLA-A02:01 (assay: pMHC-I dissociation, 125I-b2m, 37C; experiment 1).

half-life [h] | Binder
0.5 | TLQRSSLWCL

These binders were tested against T5, HLA-B07:02 (assay: pMHC-I dissociation, 125I-b2m, 37C; experiment 1).

half-life [h] | Binder
0 | MFATLQRSSL
1.5 | GPPARVPAV
8.3 | KPKRDGYMF
0.7 | FATLQRSSL
3.3 | KPKRDGYMFL

Each binder was assayed against T6, HLA-B08:01 (assay: pMHC-I dissociation, 125I-b2m, 37C; experiment 1).

half-life [h] | Binder
0 | FLKAESKIMF
0.8 | FLKAESKIM
0 | MFATLQRSSL
0 | LHFCRSSIM
1 | ESKIMFATL
0.4 | IMKPKRDGYM
0 | FATLQRSSL

What follows are binders tested against T1, HLA-A02:01 (assay: pMHC-I dissociation, 125I-b2m, 37C; experiment 2).

half-life [h] | Binder
0.5 | TLQRSSLWCL

Each binder was assayed against T5, HLA-B07:02 (assay: pMHC-I dissociation, 125I-b2m, 37C; experiment 2).

half-life [h] | Binder
0 | MFATLQRSSL
1.8 | GPPARVPAV
9 | KPKRDGYMF
0.6 | FATLQRSSL
3.3 | KPKRDGYMFL

What follows are binders tested against T6, HLA-B08:01 (assay: pMHC-I dissociation, 125I-b2m, 37C; experiment 2).

half-life [h] | Binder
0 | FLKAESKIMF
1.5 | FLKAESKIM
0 | MFATLQRSSL
0 | LHFCRSSIM
1.6 | ESKIMFATL
0.4 | IMKPKRDGYM
0 | FATLQRSSL

These binders were tested against T1, HLA-A02:01 (assay: competition vs radiolabeled peptide on purified HLA; measured IC50).

IC50 [nM] | Binder
281 | TLQRSSLWCL

Each binder was assayed against T5, HLA-B07:02 in the same assay as above.

IC50 [nM] | Binder
350 | MFATLQRSSL
282 | GPPARVPAV
28.2 | KPKRDGYMF
14 | FATLQRSSL
115 | KPKRDGYMFL

Each binder was assayed against T6, HLA-B08:01 in the same assay as above.

IC50 [nM] | Binder
90 | FLKAESKIMF
167 | LHFCRSSIM
23.3 | ESKIMFATL
40.2 | IMKPKRDGYM
27.5 | FATLQRSSL

The binders below were run against T1, HLA-A02:01 (assay: competition vs radiolabeled peptide on purified HLA; IC50 corrected for peptide concentration).

IC50 [nM] | Binder
118 | TLQRSSLWCL

Each binder was assayed against T5, HLA-B07:02 in the same assay as above.

IC50 [nM] | Binder
267 | MFATLQRSSL
221 | GPPARVPAV
28.2 | KPKRDGYMF
14 | FATLQRSSL
98.1 | KPKRDGYMFL
